The supplement of paper PMC10126150
± gives the standard deviation of the averaged measurements.

tested on: ATP; assay: switch fluorescence ratio, 500 uM ATP over buffer (Cy3 cluster intensity, sum of 5 cycles each) (fold (ratio)); higher = stronger signal-on switching upon ATP binding; sequences stand for … in TCGTCGGCAGCGTCAGATGTGTATAAGAGACAGTTTTTTTTTTTTTTTTTTTTTTTTT…TC; details: aptamer strand: ATP DNA aptamer (quencher-CACCTGGGGGAGTATTGCGGAGGAAGG + anchor), 100 nM annealed; ATP concentration: 500 uM
Procedure, shortened: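 Cy3-labelled switching-strand clusters on a modified Illumina MiSeq flow-cell were annealed to 100 nM quencher-labelled ATP aptamer and imaged first in selection buffer, then after 15 min with 500 uM ATP at 22 °C. NaOH stripping and re-annealing separated each of five buffer/ATP cycles, and clusters outside 100-1000 RFU were excluded. The fluorescence ratio sums target-cycle Cy3 intensity over buffer-cycle Cy3 intensity per cluster and averages it per switch-domain sequence.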
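Note: ATP exposure 15 min at 22 °C before imaging.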

In order of falling switch fluorescence ratio:
1. GGAGGGGGAC  3.13 ± 3.1
2. GGACGCATGG  1.33 ± 0.071
3. GGCCTGGTGT  1.29 ± 0.21
4. GGAGGGGCAA  1.24 ± 0.032
5. GGAATTCTCC  1.21 ± 0.03
6. GGACAAACGT  1.2 ± 0.052
7. GGACTGGAAG  1.19 ± 0.051
8. GGCCCAGGGA  1.18 ± 0.18
9. GGCAATAGGG  1.14 ± 0.056
10. GGAGGGATGG  1.13 ± 0.2
11. GGAGAAATCT  1.12 ± 0.022
12. GGATGCAGCT  1.12 ± 0.1
13. GGCAATCGAA  1.1145 ± 0.00045
14. GGAGGGGCGA  1.1 ± 0.14
15. GGAGTTATAT  1.105 ± 0.01
16. GGCAATGGTT  1.1 ± 0.11
17. GGATCAGAGA  1.08 ± 0.023
18. GGCACATAAT  1.08 ± 0.087
19. GGCCCAGGAT  1.07 ± 0.094
20. GGAGAAATCG  1.06 ± 0.012
21. GGATGCGCCT  1.06 ± 0.15
22. GGCCCTGCGA  1.06 ± 0.056
23. GGCCTCAAGG  1.06 ± 0.04
24. GGATAGGTAC  1.05 ± 0.04
25. GGCCTGGATT  1.05 ± 0.031
26. GGACAAACTC  1.04 ± 0.036
27. GGACACCGGG  1.04 ± 0.015
28. GGCAGGGGGG  1.04 ± 0.056
29. GGCCCCTGGC  1.04 ± 0.063
30. GGCCCGTACT  1.04 ± 0.042
31. GGAATTACCG  1.031 ± 0.0025
32. GGAGTACAAA  1.03 ± 0.033
33. GGCATTGGGG  1.03 ± 0.029
34. GGCATTTTTG  1.03 ± 0.015
35. GGCCGAAGGG  1.03 ± 0.066
36. GGCCGAGGGT  1.03 ± 0.025
37. GGCCTTGGCA  1.03 ± 0.015
38. GGAATTACAG  1.02 ± 0.046
39. GGAATTTGGC  1.02 ± 0.052
40. GGACAAGGGT  1.02 ± 0.037
41. GGACTCGCTC  1.02 ± 0.018
42. GGACTGAAGT  1.02 ± 0.038
43. GGAGACTGGT  1.02 ± 0.063
44. GGAGAGGGTT  1.022 ± 0.0044
45. GGAGGGCGGG  1.02 ± 0.021
46. GGAGTATTGG  1.02 ± 0.022
47. GGAGTCGACG  1.02 ± 0.012
48. GGAGTTTAGC  1.02 ± 0.029
49. GGATAAGAAT  1.02 ± 0.052
50. GGATAGGTAT  1.02 ± 0.066
51. GGATCACACT  1.02 ± 0.012
52. GGATCTTGGC  1.02 ± 0.025
53. GGATGGGTGT  1.02 ± 0.034
54. GGCAACTTCT  1.02 ± 0.011
55. GGCAGAGCTG  1.016 ± 0.01
56. GGCATGTGCG  1.02 ± 0.031
57. GGCATTTGAC  1.02 ± 0.006
58. GGCCCCTTAG  1.02 ± 0.03
59. GGCCTGGGCT  1.02 ± 0.061
60. GGAATTTCTT  1.01 ± 0.047
61. GGACAGTGAT  1.01 ± 0.034
62. GGACAGTGTA  1.01 ± 0.02
63. GGACGGGGGT  1.01 ± 0.038
64. GGAGACTTTA  1.006 ± 0.0056
65. GGAGATTTGT  1.01 ± 0.032
66. GGAGCTGGGA  1.0097 ± 0.00033
67. GGAGGAAATT  1.01 ± 0.082
68. GGAGGTGTTA  1.01 ± 0.031
69. GGAGGTTTAA  1.01 ± 0.024
70. GGATCTTGTG  1.01 ± 0.021
71. GGATGGTATG  1.01 ± 0.015
72. GGATGGTGGG  1.01 ± 0.042
73. GGATGTGTAA  1.007 ± 0.007
74. GGATTAAAAG  1.01 ± 0.067
75. GGCAGGGATT  1.01 ± 0.014
76. GGCAGTCCTT  1.005 ± 0.0044
77. GGCATAGGTA  1.01 ± 0.012
78. GGCATTAATT  1.01 ± 0.048
79. GGCCAAGGAT  1.01 ± 0.028
80. GGCCATCCAG  1.01 ± 0.036
81. GGCCATTTTT  1.01 ± 0.03
82. GGCCGCGGAC  1.01 ± 0.035
83. GGCCGTGAGG  1.01 ± 0.0098
84. GGCCGTTCGT  1.008 ± 0.0091
85. GGCCTTTATT  1.01 ± 0.031
86. GGACGATGGT  1 ± 0.026
87. GGACGGGGGC  1 ± 0.016
88. GGACTATTTG  1.003 ± 0.0011
89. GGACTTCCTG  1.003 ± 0.0065
90. GGAGCGGGGA  1 ± 0.084
91. GGAGGCACTG  0.9996 ± 0.0095
92. GGAGTGCCGT  1 ± 0.093
93. GGATAGGACA  1 ± 0.04
94. GGATGCTGAT  1 ± 0.047
95. GGATGGGATA  1 ± 0.016
96. GGATTGTGAA  1 ± 0.025
97. GGATTGTTTA  1 ± 0.014
98. GGATTTGGCC  1 ± 0.043
99. GGCAGGGACT  1 ± 0.033
100. GGCATAGAAT  1.001 ± 0.0012
101. GGCATTTGTG  1 ± 0.025
102. GGCCGCCTTG  1 ± 0.037
103. GGCCGGCAAC  0.9996 ± 0.0039
104. GGAGTGGTTC  0.999 ± 0.013
105. GGATGGGCTA  0.999 ± 0.025
106. GGATGTAGGG  0.999 ± 0.029
107. GGATGTGTTT  0.999 ± 0.029
108. GGACCGTTTT  0.998 ± 0.016
109. GGCATTATAT  0.9984 ± 0.0058
110. GGATTTTAGG  0.997 ± 0.019
111. GGCAACGCGC  0.997 ± 0.031
112. GGCCGGCTAA  0.997 ± 0.011
113. GGATAAAATT  0.996 ± 0.015
114. GGATTGTAAT  0.9956 ± 0.0034
115. GGAGTGCTGG  0.995 ± 0.032
116. GGCAGAAAAA  0.9949 ± 0.0018
117. GGATTATGAA  0.994 ± 0.023
118. GGATTTAGGT  0.994 ± 0.049
119. GGCCAAGTTG  0.994 ± 0.017
120. GGCCCGGGTT  0.994 ± 0.019
121. GGCCGGGAAT  0.9941 ± 0.0028
122. GGCCGGGGGC  0.994 ± 0.047
123. GGATAGTGCT  0.993 ± 0.012
124. GGATCCTGGG  0.993 ± 0.022
125. GGCGACCTGG  0.993 ± 0.021
126. GGATGGGGGC  0.992 ± 0.023
127. GGAGAATTAT  0.991 ± 0.024
128. GGAGAGGGCG  0.991 ± 0.066
129. GGAGCTGCGG  0.9914 ± 0.0038
130. GGAGGGGAGG  0.991 ± 0.029
131. GGATATTGTC  0.991 ± 0.024
132. GGATTCTGGA  0.991 ± 0.031
133. GGCATGCCAT  0.9908 ± 0.0077
134. GGCCACGGGG  0.991 ± 0.0054
135. GGCCTTATCG  0.991 ± 0.048
136. GGAATTAGGT  0.9903 ± 0.0077
137. GGAATTATAA  0.99 ± 0.027
138. GGATTACTAA  0.99 ± 0.029
139. GGATTTTGGC  0.99 ± 0.019
140. GGCACGGAGG  0.989 ± 0.019
141. GGAATTATCG  0.98808 ± 0.00049
142. GGACTCAGAA  0.9867 ± 0.0045
143. GGAGTCGTTT  0.987 ± 0.027
144. GGATGGAGGC  0.987 ± 0.059
145. GGCAGTTGGG  0.9868 ± 0.007
146. GGCCGGGACT  0.987 ± 0.062
147. GGATTGGGCG  0.986 ± 0.026
148. GGATTGGGGT  0.986 ± 0.04
149. GGCAGTTGTG  0.986 ± 0.024
150. GGACAATGGG  0.985 ± 0.033
151. GGACAGGCAT  0.9852 ± 0.0091
152. GGACGTTGAG  0.985 ± 0.021
153. GGACTCGGGC  0.985 ± 0.031
154. GGACTTTTGT  0.984 ± 0.02
155. GGAGGATTTA  0.984 ± 0.042
156. GGATTTTAGC  0.9835 ± 0.0024
157. GGATTTGTTA  0.983 ± 0.039
158. GGAGGGGATT  0.982 ± 0.03
159. GGAGGGGGAG  0.9817 ± 0.0084
160. GGAGTTGGAT  0.98205 ± 0.00015
161. GGCCCCAAAT  0.9817 ± 0.0041
162. GGAGCCCCGA  0.9814 ± 0.0076
163. GGAGGTGGTT  0.981 ± 0.018
164. GGAGTATCCT  0.981 ± 0.016
165. GGAGTCTGGG  0.981 ± 0.021
166. GGATCTAGGG  0.981 ± 0.018
167. GGCCGGGGAG  0.981 ± 0.018
168. GGCCGTTTGG  0.981 ± 0.032
169. GGATCTGTCG  0.98 ± 0.037
170. GGATTAATTT  0.98006 ± 0.00058
171. GGACGGTAGG  0.979 ± 0.011
172. GGATGAGCTG  0.978 ± 0.052
173. GGCCTAAAAG  0.978 ± 0.022
174. GGACGTAAGG  0.977 ± 0.016
175. GGAGATTTTT  0.977 ± 0.044
176. GGATATTGGC  0.977 ± 0.092
177. GGATTTAGGC  0.977 ± 0.029
178. GGATTGGACG  0.976 ± 0.016
179. GGCATAGATT  0.976 ± 0.066
180. GGCCCAGCGC  0.976 ± 0.0011
181. GGAGTTGCAG  0.975 ± 0.063
182. GGATTAGGGT  0.975 ± 0.019
183. GGATTTAGAA  0.975 ± 0.032
184. GGAGCAGCTG  0.97336 ± 0.00053
185. GGAGGGTTAC  0.972 ± 0.016
186. GGCCGGCAGG  0.972 ± 0.024
187. GGATGTAAGT  0.97 ± 0.017
188. GGATGACAGA  0.969 ± 0.01
189. GGAGGGATCT  0.966 ± 0.011
190. GGATATGGGT  0.966 ± 0.011
191. GGAGCAGGGA  0.963 ± 0.025
192. GGAGTTTTGT  0.9614 ± 0.0087
193. GGATAATGAG  0.961 ± 0.028
194. GGAGATTGCG  0.96 ± 0.046
195. GGACGGAGGT  0.959 ± 0.038
196. GGAGTATAAG  0.957 ± 0.012
197. GGAGGAAATG  0.949 ± 0.011
198. GGATTATGGC  0.943 ± 0.061
199. GGAGGTGG  0.942 ± 0.026
200. GGATGGTGCA  0.94 ± 0.062
